Assay results from IntAct's records for PubMed 11483516.

B1: STAM-binding protein (Homo sapiens), O95630 (parent)
chain: MSDHGDVSLPPEDRVRALSQLGSAVEVNEDIPPRRYFRSGVEIIRMASIYSEEGNIEHAFILYNKYITLFIEKLPKHRDYKSAVIPEKKDTVKKLKEIAFPKAEELKAELLKRYTKEYTEYNEEKKKEAEELARNMAIQQELEKEKQRVAQQKQQQLEQEQFHAFEEMIRNQELEKERLKIVQEFGKVDPGLGGPLVPDLEKPSLDVFPTLTVSSIQPSDCHTTVRPAKPPVVDRSLKPGALSNSESIPTIDGLRHVVVPGRLCPQFLQLASANTARGVETCGILCGKLMRNEFTITHVLIPKQSAGSDYCNTENEEELFLIQDQQGLITLGWIHTHPTQTAFLSSVDLHTHCSYQMMLPESVAIVCSPKFQETGFFKLTDHGLEEISSCRQKGFHPHSKDPPLFCSCSHVTVVDRAVTITDLR
partner: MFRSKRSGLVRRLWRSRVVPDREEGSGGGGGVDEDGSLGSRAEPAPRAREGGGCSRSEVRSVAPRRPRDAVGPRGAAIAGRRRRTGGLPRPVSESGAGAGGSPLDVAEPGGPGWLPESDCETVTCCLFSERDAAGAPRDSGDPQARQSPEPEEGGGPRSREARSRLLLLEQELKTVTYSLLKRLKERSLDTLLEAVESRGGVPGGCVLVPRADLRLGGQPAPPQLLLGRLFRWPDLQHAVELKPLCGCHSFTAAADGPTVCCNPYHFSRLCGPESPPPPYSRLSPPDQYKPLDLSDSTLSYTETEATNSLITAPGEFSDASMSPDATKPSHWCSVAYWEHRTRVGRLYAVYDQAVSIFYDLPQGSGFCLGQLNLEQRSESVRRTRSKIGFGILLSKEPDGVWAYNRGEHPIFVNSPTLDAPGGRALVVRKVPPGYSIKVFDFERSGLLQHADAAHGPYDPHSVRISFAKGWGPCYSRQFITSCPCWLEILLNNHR

Variants of: B1
Settings: with smad6_mouse Smad6, O35182

| effect of a mutation on the interaction | Variant |
| --- | --- |
| increasing interaction | MSDHGDVSLPPEDRVRALSQLGSAVEVNEDIPPRRYFRSGVEIIRMASIYSEEGNIEHAFILYNKYITLFIEKLPKHRDYKSAVIPEKKDTVKKLKEIAFPKAEELKAELLKRYTKEYTEYNEEKKKEAEELARNMAIQQELEKEKQRVAQQKQQQLEQEQFHAFEEMIRNQELEKERLKIVQEFGKVDPGLGGPLVPDLEKPSLDVFPTLTVSSIQPSDCHTTVRPAKPPVVDRSLKPGALANAEAIPTIDGLRHVVVPGRLCPQFLQLASANTARGVETCGILCGKLMRNEFTITHVLIPKQSAGSDYCNTENEEELFLIQDQQGLITLGWIHTHPTQTAFLSSVDLHTHCSYQMMLPESVAIVCSPKFQETGFFKLTDHGLEEISSCRQKGFHPHSKDPPLFCSCSHVTVVDRAVTITDLR [S243A;S245A;S247A] |
